Experimental data from IntAct's records for PubMed 31515488.

B1: Splicing factor 45 (Homo sapiens), Q96I25 (parent)
chain: MSLYDDLGVETSDSKTEGWSKNFKLLQSQLQVKKAALTQAKSQRTKQSTVLAPVIDLKRGGSSDDRQIVDTPPHVAAGLKDPVPSGFSAGEVLIPLADEYDPMFPNDYEKVVKRQREERQRQRELERQKEIEEREKRRKDRHEASGFARRPDPDSDEDEDYERERRKRSMGGAAIAPPTSLVEKDKELPRDFPYEEDSRPRSQSSKAAIPPPVYEEQDRPRSPTGPSNSFLANMGGTVAHKIMQKYGFREGQGLGKHEQGLSTALSVEKTSKRGGKIIVGDATEKDASKKSDSNPLTEILKCPTKVVLLRNMVGAGEVDEDLEVETKEECEKYGKVGKCVIFEIPGAPDDEAVRIFLEFERVESAIKAVVDLNGRYFGGRVVKACFYNLDKFRVLDLAEQV
partner: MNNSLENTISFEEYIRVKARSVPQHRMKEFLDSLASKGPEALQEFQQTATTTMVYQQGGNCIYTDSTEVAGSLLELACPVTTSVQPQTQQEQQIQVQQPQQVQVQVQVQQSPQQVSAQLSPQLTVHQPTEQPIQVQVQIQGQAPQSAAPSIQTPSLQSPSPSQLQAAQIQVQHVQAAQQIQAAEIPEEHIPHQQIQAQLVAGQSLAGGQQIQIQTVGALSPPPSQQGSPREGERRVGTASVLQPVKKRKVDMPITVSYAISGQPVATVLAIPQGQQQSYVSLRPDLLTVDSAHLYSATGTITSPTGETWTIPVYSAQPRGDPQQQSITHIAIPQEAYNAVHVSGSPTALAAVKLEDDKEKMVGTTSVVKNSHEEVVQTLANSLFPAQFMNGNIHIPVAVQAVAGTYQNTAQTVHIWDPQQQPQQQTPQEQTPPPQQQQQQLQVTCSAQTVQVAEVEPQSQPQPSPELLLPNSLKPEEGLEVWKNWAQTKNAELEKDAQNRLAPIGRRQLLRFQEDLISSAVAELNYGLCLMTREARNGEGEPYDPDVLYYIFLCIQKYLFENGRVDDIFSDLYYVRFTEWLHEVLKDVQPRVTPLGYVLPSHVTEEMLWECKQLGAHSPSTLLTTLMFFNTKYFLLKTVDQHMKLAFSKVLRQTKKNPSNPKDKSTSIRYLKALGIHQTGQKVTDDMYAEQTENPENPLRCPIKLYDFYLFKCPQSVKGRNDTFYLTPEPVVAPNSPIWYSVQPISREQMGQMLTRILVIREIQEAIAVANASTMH
B2: Epidermal growth factor receptor substrate 15-like 1 (Homo sapiens), Q9UBC2 (parent)
chain: MAAPLIPLSQQIPTGNSLYESYYKQVDPAYTGRVGASEAALFLKKSGLSDIILGKIWDLADPEGKGFLDKQGFYVALRLVACAQSGHEVTLSNLNLSMPPPKFHDTSSPLMVTPPSAEAHWAVRVEEKAKFDGIFESLLPINGLLSGDKVKPVLMNSKLPLDVLGRVWDLSDIDKDGHLDRDEFAVAMHLVYRALEKEPVPSALPPSLIPPSKRKKTVFPGAVPVLPASPPPKDSLRSTPSHGSVSSLNSTGSLSPKHSLKQTQPTVNWVVPVADKMRFDEIFLKTDLDLDGYVSGQEVKEIFMHSGLTQNLLAHIWALADTRQTGKLSKDQFALAMYFIQQKVSKGIDPPQVLSPDMVPPSERGTPGPDSSGSLGSGEFTGVKELDDISQEIAQLQREKYSLEQDIREKEEAIRQKTSEVQELQNDLDRETSSLQELEAQKQDAQDRLDEMDQQKAKLRDMLSDVRQKCQDETQMISSLKTQIQSQESDLKSQEDDLNRAKSELNRLQQEETQLEQSIQAGRVQLETIIKSLKSTQDEINQARSKLSQLHESRQEAHRSLEQYDQVLDGAHGASLTDLANLSEGVSLAERGSFGAMDDPFKNKALLFSNNTQELHPDPFQTEDPFKSDPFKGADPFKGDPFQNDPFAEQQTTSTDPFGGDPFKESDPFRGSATDDFFKKQTKNDPFTSDPFTKNPSLPSKLDPFESSDPFSSSSVSSKGSDPFGTLDPFGSGSFNSAEGFADFSQMSKPPPSGPFTSSLGGAGFSDDPFKSKQDTPALPPKKPAPPRPKPPSGKSTPVSQLGSADFPEAPDPFQPLGADSGDPFQSKKGFGDPFSGKDPFVPSSAAKPSKASASGFADFTSVS
partner: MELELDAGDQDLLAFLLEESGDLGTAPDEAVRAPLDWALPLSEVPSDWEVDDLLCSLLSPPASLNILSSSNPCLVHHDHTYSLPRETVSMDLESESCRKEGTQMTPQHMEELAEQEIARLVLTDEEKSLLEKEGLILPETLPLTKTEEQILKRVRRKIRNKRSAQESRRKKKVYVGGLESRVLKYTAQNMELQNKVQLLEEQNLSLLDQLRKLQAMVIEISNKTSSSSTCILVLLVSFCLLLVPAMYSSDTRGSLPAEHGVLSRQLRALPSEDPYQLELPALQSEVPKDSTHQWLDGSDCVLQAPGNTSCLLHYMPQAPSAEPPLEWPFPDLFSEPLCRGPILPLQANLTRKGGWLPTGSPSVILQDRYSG
B3: E3 ubiquitin-protein ligase MYLIP (Homo sapiens), Q8WY64 (parent)
chain: MLCYVTRPDAVLMEVEVEAKANGEDCLNQVCRRLGIIEVDYFGLQFTGSKGESLWLNLRNRISQQMDGLAPYRLKLRVKFFVEPHLILQEQTRHIFFLHIKEALLAGHLLCSPEQAVELSALLAQTKFGDYNQNTAKYNYEELCAKELSSATLNSIVAKHKELEGTSQASAEYQVLQIVSAMENYGIEWHSVRDSEGQKLLIGVGPEGISICKDDFSPINRIAYPVVQMATQSGKNVYLTVTKESGNSIVLLFKMISTRAASGLYRAITETHAFYRCDTVTSAVMMQYSRDLKGHLASLFLNENINLGKKYVFDIKRTSKEVYDHARRALYNAGVVDLVSRNNQSPSHSPLKSSESSMNCSSCEGLSCQQTRVLQEKLRKLKEAMLCMVCCEEEINSTFCPCGHTVCCESCAAQLQSCPVCRSRVEHVQHVYLPTHTSLLNLTVI
partner: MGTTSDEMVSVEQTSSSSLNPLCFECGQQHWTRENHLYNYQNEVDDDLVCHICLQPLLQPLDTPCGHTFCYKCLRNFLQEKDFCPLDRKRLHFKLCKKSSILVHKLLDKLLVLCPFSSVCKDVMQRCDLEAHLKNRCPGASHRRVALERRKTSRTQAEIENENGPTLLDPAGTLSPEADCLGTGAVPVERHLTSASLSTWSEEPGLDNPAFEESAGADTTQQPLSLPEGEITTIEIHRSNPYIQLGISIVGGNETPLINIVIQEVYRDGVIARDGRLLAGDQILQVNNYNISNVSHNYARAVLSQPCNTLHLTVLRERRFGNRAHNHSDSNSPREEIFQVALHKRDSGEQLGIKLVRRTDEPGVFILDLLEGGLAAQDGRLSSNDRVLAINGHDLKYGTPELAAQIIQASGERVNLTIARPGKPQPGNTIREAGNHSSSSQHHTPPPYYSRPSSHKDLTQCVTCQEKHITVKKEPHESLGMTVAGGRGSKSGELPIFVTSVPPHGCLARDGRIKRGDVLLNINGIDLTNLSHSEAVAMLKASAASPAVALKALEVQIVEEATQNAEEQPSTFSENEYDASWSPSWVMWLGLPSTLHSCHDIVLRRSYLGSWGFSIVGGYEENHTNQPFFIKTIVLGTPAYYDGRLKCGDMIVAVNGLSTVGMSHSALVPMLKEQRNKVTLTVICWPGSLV
B4: Cyclin-dependent kinase 4 inhibitor D (Homo sapiens), P55273 (parent)
chain: MLLEEVRAGDRLSGAAARGDVQEVRRLLHRELVHPDALNRFGKTALQVMMFGSTAIALELLKQGASPNVQDTSGTSPVHDAARTGFLDTLKVLVEHGADVNVPDGTGALPIHLAVQEGHTAVVSFLAAESDLHRRDARGLTPLELALQRGAQDLVDILQGHMVAPL

Variants of: B1
Conditions: with qric1_human QRICH1, Q2TAL8

effect of a mutation on the interaction	Variant
with no effect	T224I

Variants of: B2
Conditions: with creb3_human CREB3, O43889

effect of a mutation on the interaction	Variant
with no effect	P356L

Variants of: B3
Conditions: with lnx2_human LNX2, Q8N448

effect of a mutation on the interaction	Variant
with no effect	N342S

Variants of: B4
Conditions: with nr4a1_human NR4A1, P22736

effect of a mutation on the interaction	Variant
with no effect	A121S
disrupting interaction strength	P142S

Variants of: B4
Conditions: with cdk4_human CDK4, P11802

effect of a mutation on the interaction	Variant
with no effect	A121S

Variants of: B4
Conditions: with nr4a2_human NR4A2, P43354

effect of a mutation on the interaction	Variant
with no effect	A121S
with no effect	P142S

Variants of: B4
Conditions: with cdk6_human CDK6, Q00534

effect of a mutation on the interaction	Variant
with no effect	A121S
with no effect	V94M
with no effect	P142S
with no effect	P67L
